# Assay results: patent US20220389118A1 (Chugai, published 2022)
# Where two headings read alike, the source gives them in different places.
# T1: human FcγRIIa type H (allotype H131) extracellular domain with C-terminal His tag (human, UniProt P12318 34-217)
# T1 construct: extracellular domain; also called FcγRIIaH; FcγRIIa H type; not shown: His tag at the C terminus
# T1 sequence (looked up): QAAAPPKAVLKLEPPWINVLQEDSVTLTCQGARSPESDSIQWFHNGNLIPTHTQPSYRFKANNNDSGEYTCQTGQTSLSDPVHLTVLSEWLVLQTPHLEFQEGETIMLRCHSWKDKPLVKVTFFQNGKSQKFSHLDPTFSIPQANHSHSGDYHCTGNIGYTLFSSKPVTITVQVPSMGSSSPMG
# T2: human FcγRIIb extracellular domain with C-terminal His tag (human, UniProt P31994 43-217)
# T2 construct: extracellular domain; not shown: His tag at the C terminus
# T2 sequence (looked up): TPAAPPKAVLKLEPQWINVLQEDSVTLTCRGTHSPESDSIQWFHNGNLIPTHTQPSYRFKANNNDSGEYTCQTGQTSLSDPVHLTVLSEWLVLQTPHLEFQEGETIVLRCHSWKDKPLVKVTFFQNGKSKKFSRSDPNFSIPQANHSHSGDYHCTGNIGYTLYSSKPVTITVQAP
# T3: human FcγRIIb extracellular domain with C-terminal His tag (human, UniProt P31994 43-217)
# T3 construct: extracellular domain; not shown: His tag at the C terminus
# T3 sequence (looked up): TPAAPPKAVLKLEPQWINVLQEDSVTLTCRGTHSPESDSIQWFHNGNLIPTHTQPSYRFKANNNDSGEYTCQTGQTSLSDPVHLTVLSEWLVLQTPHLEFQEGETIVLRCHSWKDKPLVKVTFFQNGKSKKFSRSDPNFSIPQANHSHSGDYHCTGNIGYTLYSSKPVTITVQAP
# T4: human FcγRIIa type R (R131) extracellular domain with C-terminal His tag (human, UniProt P12318 34-217)
# T4 construct: extracellular domain; also called FcγRIIaR; not shown: His tag at the C terminus
# T4 sequence (looked up): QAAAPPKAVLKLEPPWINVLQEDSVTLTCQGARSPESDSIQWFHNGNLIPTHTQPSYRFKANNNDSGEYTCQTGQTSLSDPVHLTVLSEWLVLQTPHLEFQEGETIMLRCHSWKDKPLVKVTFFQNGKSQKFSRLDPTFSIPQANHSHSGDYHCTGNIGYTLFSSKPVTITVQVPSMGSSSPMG
# B1: IL6R-BP198/IL6R-L (antibody, human IgG1, kappa)
# heavy: QVQLQESGPGLVKPSETLSLTCAVSGHSISHDHAWSWVRQPPGEGLEWIGFISYSGITNYNPSLQGRVTISRDNSKNTLYLQMNSLRAEDTAVYYCARSLARTTAMDYWGEGTLVTVSSASTKGPSVFPLAPSSKSTSGGTAALGCLVKDYFPEPVTVSWNSGALTSGVHTFPAVLQSSGLYSLSSVVTVPSSSLGTQTYICNVNHKPSNTKVDKKVEPKSCDKTHTCPPCPAPDYLGGDSVFLFPPKPKDTLMISRTPEVTCVVVDVSDEDGEVKFNWYVDGVEVHNAKTKPREEQYNSTYRVVSVLTVLHQDWLNGKEYKCKVSNAALPKPIEKTISKAKGQPREPQVYTLPPSRDELTKNQVSLTCLVKGFYPSDIAVEWESNGQPENNYKTTPPVLDSDGSFFLYSKLTVDKSRWQQGNVFSCSVMHEALHNHYTQESLSLSP
# light: not shown
# notes: copies: 2 + 2
# B2: IL6R-BP468/IL6R-L (antibody, human IgG1, kappa)
# heavy: QVQLQESGPGLVKPSETLSLTCAVSGHSISHDHAWSWVRQPPGEGLEWIGFISYSGITNYNPSLQGRVTISRDNSKNTLYLQMNSLRAEDTAVYYCARSLARTTAMDYWGEGTLVTVSSASTKGPSVFPLAPSSKSTSGGTAALGCLVKDYFPEPVTVSWNSGALTSGVHTFPAVLQSSGLYSLSSVVTVPSSSLGTQTYICNVNHKPSNTKVDKKVEPKSCDKTHTCPPCPAPDLLGDDSVFLFPPKPKDTLMISRTPEVTCVVVDVSDEDGEVKFNWYVDGVEVHNAKTKPREEQDNSTYRVVSVLTVLHQDWLNGKEYKCKVSNKALPRPIETTISKAKGQPREPQVYTLPPSRDELTKNQVSLTCLVKGFYPSDIAVEWESNGQPENNYKTTPPVLDSDGSFFLYSKLTVDKSRWQQGNVFSCSVMHEALHNHYTQESLSLSP
# light: not shown
# notes: copies: 2 + 2
# B3: IL6R-BP469/IL6R-L (antibody, human IgG1, kappa)
# heavy: QVQLQESGPGLVKPSETLSLTCAVSGHSISHDHAWSWVRQPPGEGLEWIGFISYSGITNYNPSLQGRVTISRDNSKNTLYLQMNSLRAEDTAVYYCARSLARTTAMDYWGEGTLVTVSSASTKGPSVFPLAPSSKSTSGGTAALGCLVKDYFPEPVTVSWNSGALTSGVHTFPAVLQSSGLYSLSSVVTVPSSSLGTQTYICNVNHKPSNTKVDKKVEPKSCDKTHTCPPCPAPDLLGDDSVFLFPPKPKDTLMISRTPEVTCVVVDVSDEDGEVKFNWYVDGVEVHNAKTKPREEQDNSTYRVVSVLTVLHQDWLNGKEYKCKVSNKALPRPISKTISKAKGQPREPQVYTLPPSRDELTKNQVSLTCLVKGFYPSDIAVEWESNGQPENNYKTTPPVLDSDGSFFLYSKLTVDKSRWQQGNVFSCSVMHEALHNHYTQESLSLSP
# light: not shown
# notes: E333S introduced into IL6R-BP230; copies: 2 + 2
# B4: IL6R-BP267/IL6R-L (antibody, human IgG1, kappa)
# heavy: QVQLQESGPGLVKPSETLSLTCAVSGHSISHDHAWSWVRQPPGEGLEWIGFISYSGITNYNPSLQGRVTISRDNSKNTLYLQMNSLRAEDTAVYYCARSLARTTAMDYWGEGTLVTVSSASTKGPSVFPLAPSSKSTSGGTAALGCLVKDYFPEPVTVSWNSGALTSGVHTFPAVLQSSGLYSLSSVVTVPSSSLGTQTYICNVNHKPSNTKVDKKVEPKSCDKTHTCPPCPAPDLLGDDSVFLFPPKPKDTLMISRTPEVTCVVVDVSEEDGEVKFNWYVDGVEVHNAKTKPREEQYNSTYRVVSVLTVLHQDWLNGKEYKCKVSNKALPAPIEKTISKAKGQPREPQVYTLPPSRDELTKNQVSLTCLVKGFYPSDIAVEWESNGQPENNYKTTPPVLDSDGSFFLYSKLTVDKSRWQQGNVFSCSVMHEALHNHYTQESLSLSP
# light: not shown
# notes: alterations counted against IL6R-B3; copies: 2 + 2
# What was measured:
# [1] = biological target: T5, human FcγRIIIa type V (allotype V158) extracellular domain with C-terminal His tag (human, UniProt P08637 17-208); assay: SPR (Biacore), antibody captured, FcγR analyte
# T5 construct: extracellular domain; also called FcγRIIIaV; FcγRIIIa V type; not shown: His tag at the C terminus
# [2] = biological target: T1, human FcγRIIa type H (allotype H131) …; assay: SPR (Biacore), antibody captured, FcγR analyte
# [3] = biological target: T6, human FcγRIa extracellular domain with C-terminal His tag (human, UniProt P12314 16-292); assay: SPR (Biacore), antibody captured, FcγR analyte
# T6 construct: not shown: His tag at the C terminus
# T6 sequence (P12314 16-292): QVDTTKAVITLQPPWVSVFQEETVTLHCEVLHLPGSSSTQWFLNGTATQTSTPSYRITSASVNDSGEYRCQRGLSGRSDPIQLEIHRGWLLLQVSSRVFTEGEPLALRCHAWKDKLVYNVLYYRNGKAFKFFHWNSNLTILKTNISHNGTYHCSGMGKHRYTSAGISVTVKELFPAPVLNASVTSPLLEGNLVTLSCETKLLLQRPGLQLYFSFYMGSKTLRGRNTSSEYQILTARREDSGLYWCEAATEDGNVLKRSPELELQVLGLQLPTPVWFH
# [4] = biological target: T2, human FcγRIIb extracellular domain with …; assay: SPR (Biacore), antibody captured, FcγR analyte
# [5] = biological target: T2, human FcγRIIb extracellular domain with …; assay: SPR (Biacore); KD ratio against IL6R-B3/IL6R-L
# [6] = biological target: T3, human FcγRIIb extracellular domain with …; assay: SPR (Biacore), antibody captured, FcγR analyte; remark: listed apart in the source
# [7] = biological target: T4, human FcγRIIa type R (R131) …; assay: SPR (Biacore), antibody captured, FcγR analyte
# [8] = biological target: T7, human FcγRIa extracellular domain with C-terminal His tag (human, UniProt P12314 16-292); assay: SPR (Biacore), antibody captured, FcγR analyte; remark: listed apart in the source
# T7 construct: not shown: His tag at the C terminus
# T7 sequence (P12314 16-292): as above
# T5 sequence (P08637 17-208 F176V): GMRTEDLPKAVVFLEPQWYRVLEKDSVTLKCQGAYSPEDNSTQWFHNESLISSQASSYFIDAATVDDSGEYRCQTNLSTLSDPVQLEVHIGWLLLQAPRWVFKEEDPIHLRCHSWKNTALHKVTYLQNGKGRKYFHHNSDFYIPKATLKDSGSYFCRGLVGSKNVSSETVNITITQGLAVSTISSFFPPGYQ
binder,measurement,setting,value
B1,Kd,[1],44000 nM
same,Kd,[2],20000 nM
same,Kd,[3],11 nM
same,Kd,[4],200 nM
same,KD(IIb) of parent polypeptide/KD(IIb) of altered polypeptide,[5],15.7
B2,Kd,[6],40 nM
B3,Kd,[7],600 nM
B4,Kd,[8],4 nM
